In the Immune Epitope Database (IEDB):
pIC50, pKd: −log10 of the molar value.

Assays:
HLA-A*02:01 [1] = assay: IEDB peptide-MHC binding, purified MHC/competitive/fluorescence; filed as Kd, often an IC50 or EC50 that approximates it; ≥ and ≤ were set here for values at or beyond the usual limits of such assays; conditions: source organism: Mycobacterium tuberculosis C
HLA-A*02:03 = assay: as above; conditions: source organism: Mycobacterium tuberculosis C
HLA-A*02:11 = assay: as above; conditions: source organism: Mycobacterium tuberculosis C
HLA-A*02:12 = assay: as above; conditions: source organism: Mycobacterium tuberculosis C
HLA-A*02:16 = assay: as above; conditions: source organism: Mycobacterium tuberculosis C
HLA-A*02:19 = assay: as above; conditions: source organism: Mycobacterium tuberculosis C
HLA-A*03:01 [2] = assay: as above; conditions: source organism: Mycobacterium tuberculosis C
HLA-A*23:01 = assay: as above
HLA-A*24:03 = assay: as above; conditions: source organism: Mycobacterium tuberculosis C
HLA-A*26:01 [3] = assay: as above; conditions: source organism: Mycobacterium tuberculosis C
HLA-A*29:02 = assay: as above; conditions: source organism: Mycobacterium tuberculosis C
HLA-A*68:02 = assay: as above; conditions: source organism: Mycobacterium tuberculosis C
HLA-A*69:01 [4] = assay: as above; conditions: source organism: Mycobacterium tuberculosis C
HLA-B*15:01 [5] = assay: as above; conditions: source organism: Mycobacterium tuberculosis C
HLA-B*15:17 [6] = assay: as above; conditions: source organism: Mycobacterium tuberculosis C
HLA-B*18:01 [7] = assay: as above; conditions: source organism: Mycobacterium tuberculosis C
HLA-B*27:03 = assay: as above; conditions: source organism: Mycobacterium tuberculosis C
HLA-B*39:01 [8] = assay: as above; conditions: source organism: Mycobacterium tuberculosis C
HLA-B*46:01 [9] = assay: as above; conditions: source organism: Mycobacterium tuberculosis C
HLA-B*51:01 = assay: as above; conditions: source organism: Mycobacterium tuberculosis C
HLA-B*57:01 [10] = assay: as above; conditions: source organism: Mycobacterium tuberculosis C
HLA-B*07:02 [11] = assay: IEDB peptide-MHC binding, purified MHC/competitive/fluorescence; ≥ and ≤ were set here for values at or beyond the usual limits of such assays; conditions: source organism: Callithrix jacchus
HLA-B*53:01 = assay: as above; conditions: source organism: Callithrix jacchus
HLA-A*01:01 = assay: IEDB peptide-MHC binding, purified MHC/direct/fluorescence; filed as Kd, often an IC50 or EC50 that approximates it; ≥ and ≤ were set here for values at or beyond the usual limits of such assays; conditions: source organism: Influenza A virus (A/swine/Chiai/77-10/2001(H3N1))
HLA-A*02:01 [12] = assay: as above; conditions: source organism: Influenza A virus (A/swine/Chiai/77-10/2001(H3N1))
HLA-A*03:01 [13] = assay: as above; conditions: source organism: Influenza A virus (A/swine/Chiai/77-10/2001(H3N1))
HLA-A*26:01 [14] = assay: as above; conditions: source organism: Influenza A virus (A/turkey/NC/17026/1988(H1N1))
HLA-A*31:01 = assay: as above; conditions: source organism: Influenza A virus (A/swine/Chiai/77-10/2001(H3N1))
HLA-A*69:01 [15] = assay: as above; conditions: source organism: Influenza A virus (A/swine/Chiai/77-10/2001(H3N1))
HLA-B*07:02 [16] = assay: as above; conditions: source organism: Influenza A virus (A/swine/Chiai/77-10/2001(H3N1))
HLA-B*08:01 = assay: as above; conditions: source organism: Influenza A virus (A/turkey/NC/17026/1988(H1N1))
HLA-B*08:02 = assay: as above; conditions: source organism: Influenza A virus (A/turkey/NC/17026/1988(H1N1))
HLA-B*15:01 [17] = assay: as above; conditions: source organism: Influenza A virus (A/swine/Chiai/77-10/2001(H3N1))
HLA-B*15:09 = assay: as above; conditions: source organism: Influenza A virus (A/turkey/NC/17026/1988(H1N1))
HLA-B*15:17 [18] = assay: as above; conditions: source organism: Influenza A virus (A/swine/Chiai/77-10/2001(H3N1))
HLA-B*18:01 [19] = assay: as above; conditions: source organism: Influenza A virus (A/swine/Chiai/77-10/2001(H3N1))
HLA-B*27:05 = assay: as above; conditions: source organism: Influenza A virus (A/swine/Chiai/77-10/2001(H3N1))
HLA-B*39:01 [20] = assay: as above; conditions: source organism: Influenza A virus (A/turkey/NC/17026/1988(H1N1))
HLA-B*40:01 = assay: as above; conditions: source organism: Influenza A virus (A/swine/Chiai/77-10/2001(H3N1))
HLA-B*46:01 [21] = assay: as above; conditions: source organism: Influenza A virus (A/swine/Chiai/77-10/2001(H3N1))
HLA-B*48:01 = assay: as above; conditions: source organism: Influenza A virus (A/swine/Chiai/77-10/2001(H3N1))
HLA-B*57:01 [22] = assay: as above; conditions: source organism: Influenza A virus (A/swine/Chiai/77-10/2001(H3N1))
HLA-B*58:01 = assay: as above; conditions: source organism: Influenza A virus (A/swine/Chiai/77-10/2001(H3N1))
HLA-A*11:01 = assay: IEDB peptide-MHC binding, purified MHC/competitive/fluorescence; filed as Kd, often an IC50 or EC50 that approximates it; ≥ and ≤ were set here for values at or beyond the usual limits of such assays; conditions: source organism: Influenza A virus
HLA-A*80:01 = assay: as above; conditions: source organism: Influenza A virus

SLVAIHLAC was tested. Which pKd (HLA-A*02:01 [1]) did it give?
The pKd was no more than 4.70.

What about the pKd (HLA-A*02:03) of the same sequence?
Its pKd is no more than 4.70.

And the pKd (HLA-A*02:11)?
The pKd was 6.35.

And the pKd (HLA-A*02:12)?
Its pKd is no more than 4.70.

And the pKd (HLA-A*02:16)?
The pKd was no more than 4.70.

And the pKd (HLA-A*02:19)?
The pKd was no more than 4.70.

What about the pKd (HLA-A*03:01 [2]) of the same sequence?
Its pKd is no more than 4.70.

And the pKd (HLA-A*23:01; source organism: Mycobacterium tuberculosis C)?
Its pKd is no more than 4.70.

What about the pKd (HLA-A*24:03) of the same sequence?
Its pKd is no more than 4.70.

And the pKd (HLA-A*26:01 [3])?
The pKd was no more than 4.70.

And the pKd (HLA-A*29:02)?
Its pKd is no more than 4.70.

What about the pKd (HLA-A*68:02) of the same sequence?
Its pKd is no more than 4.70.

And the pKd (HLA-A*69:01 [4])?
The pKd was no more than 4.70.

What about the pKd (HLA-B*15:01 [5]) of the same sequence?
The pKd was no more than 4.70.

What about the pKd (HLA-B*15:17 [6]) of the same sequence?
The pKd was no more than 4.70.

And the pKd (HLA-B*18:01 [7])?
Its pKd is no more than 4.70.

What about the pKd (HLA-B*27:03) of the same sequence?
Its pKd is no more than 4.70.

And the pKd (HLA-B*39:01 [8])?
The pKd was no more than 4.70.

And the pKd (HLA-B*46:01 [9])?
The pKd was no more than 4.70.

What about the pKd (HLA-B*51:01) of the same sequence?
The pKd was no more than 4.70.

And the pKd (HLA-B*57:01 [10])?
The pKd was no more than 4.70.

SYHNVDQLK was tested. Which pKd (HLA-A*23:01; source organism: Vibrio parahaemolyticus K5030) did it give?
The pKd was no more than 4.70.

What does the source list for VPIAWAAA?
pIC50 (HLA-B*07:02 [11]): 6.84; pIC50 (HLA-B*53:01): ≤ 4.70

With VSFDQNLDY as the sequence, how does the pKd (HLA-A*01:01) read?
Its pKd is 6.93.

What about the pKd (HLA-A*02:01 [12]) of the same sequence?
Its pKd is no more than 4.70.

What about the pKd (HLA-A*03:01 [13]) of the same sequence?
Its pKd is 5.19.

What about the pKd (HLA-A*26:01 [14]) of the same sequence?
The pKd was no more than 4.70.

What about the pKd (HLA-A*31:01) of the same sequence?
Its pKd is no more than 4.70.

What about the pKd (HLA-A*69:01 [15]) of the same sequence?
Its pKd is no more than 4.70.

And the pKd (HLA-B*07:02 [16])?
The pKd was no more than 4.70.

And the pKd (HLA-B*08:01)?
The pKd was no more than 4.70.

What about the pKd (HLA-B*08:02) of the same sequence?
The pKd was no more than 4.70.

What about the pKd (HLA-B*15:01 [17]) of the same sequence?
The pKd was 7.72.

And the pKd (HLA-B*15:09)?
The pKd was no more than 4.70.

What about the pKd (HLA-B*15:17 [18]) of the same sequence?
The pKd was 8.80.

And the pKd (HLA-B*18:01 [19])?
Its pKd is no more than 4.70.

What about the pKd (HLA-B*27:05) of the same sequence?
Its pKd is no more than 4.70.

What about the pKd (HLA-B*39:01 [20]) of the same sequence?
The pKd was no more than 4.70.

And the pKd (HLA-B*40:01)?
Its pKd is no more than 4.70.

And the pKd (HLA-B*46:01 [21])?
Its pKd is no more than 4.70.

What about the pKd (HLA-B*48:01) of the same sequence?
Its pKd is no more than 4.70.

What about the pKd (HLA-B*57:01 [22]) of the same sequence?
Its pKd is no more than 4.70.

What about the pKd (HLA-B*58:01) of the same sequence?
The pKd was 5.46.

And the pKd (HLA-A*11:01)?
Its pKd is 7.01.

What about the pKd (HLA-A*80:01) of the same sequence?
Its pKd is 7.74.
